In patent US10975365B2, “Di-enzymatic chimeric endolysin” (Government of the United States of America, as represented …, priority 2018, dated 2021):

Key:
[1] = test system: other streptococci strains; assay: MIC test on other streptococci strains; format: cell-based
Protocol: The MICs of enzymes and antibiotics were determined in a 96-well titration plate in triplicate. Briefly, the overnight pneumococcal culture was diluted with 2×THY to obtain a final concentration of 1×10^7 CFU/ml, and other bacterial species were diluted with 2-folded medium to 1×10^5 CFU/ml. 100 μl of the diluted bacterial culture was subjected into each well, mixing with the serial 2-fold diluted 100 μl of enzymes/antibiotics. PBS buffer was used as a negative control. The plates were sealed via parafilm and statically incubated at 37° C. incubator for 24 h. The MIC was defined as the lowest concentration of treatment that inhibited visible growth of the bacterium.
With regard to applying the design rationale to add a C′ terminal EAD such that two EADs are disposed at each side of the CBD, the process was used to engineer endolysins for increased activity. We created the ClyX-3, the full-length Cpl-1 with an additional C′ terminal PlyC CHAP, and ClyX-4, the full-length PlySs2 with an additional C′ terminal Cpl-1 EAD (GH25) (FIG. 4 and FIG. 6). These constructs were expressed and purified as soluble proteins.

[2] = test system: GAS, GBS, GCS, S. uberis, S. suis and S. mutants; assay: Bactericidal activity of ClyX-4 on streptococci; format: cell-based; details: 50 μg/ml; 1 h
Protocol: (a) Bactericidal effects of ClyX-3 against five strains of stationary phase S. pneumoniae. 5 μg/ml of enzymes were mixed with 10^6 bacterial cultures for 5 min. Log killing was determined through the comparisons of PBS treatment and enzymes treatment. (b) Bactericidal effects of ClyX-4 against stationary phase streptococci. 50 μg/ml of enzymes were mixed with 10^6 bacterial culture for 1 h. Log killing was determined through the comparisons of PBS treatment and enzymes treatment;
(§1) With regard to bactericidal assay, bacterial cells were diluted to 2× rich media to generate a final concentration of 5.0×10^6 CFU/ml. 100 μl of the diluted bacterial culture was added into a 96-well titration plate in triplicate and mixed with 100 μl of sterile-filtered enzymes. Plates were sealed and incubated at 37° C. for 5-60 min. After the incubation, bacterial cells were serially diluted in 10-fold increments into sterile PBS and plated on THY/TSB agar. Log killing was calculated as follows: −log[(CFU under enzyme treatment)/(CFU under PBS treatment)].
With regard to applying the design rationale to add a C′ terminal EAD such that two EADs are disposed at each side of the CBD, the process was used to engineer endolysins for increased activity. […]

TIGR 4 = assay: Bactericidal assay (log killing), 5 min; format: cell-based, Streptococcus pneumoniae; details: 0.5 μg/ml
Protocol: as §1
(§2) Bacteriolytic capacity of ClyX-1 and ClyX-1 linkers were analyzed via the turbidity reduction assay against the overnight culture of S. pneumoniae ATCC TIGR 4. Both enzymes-induced lysis of the bacterial peptidoglycan caused a decrease in OD from 1.0 to 0.2 (80%) within the first 2 min of the turbidity assay at 5 μg/ml as shown in FIG. 9a. The linkers were the only difference between these two enzymes, and the unstructured region of PlyCA GyH, PlyCA CHAP, and Cpl-1 CBD provide optimal flexibility for enzymatical activity. High lytic activity correlated with data for bacterial survival after chimera treatment. ClyX-1 sterilized cultures for 5 min, causing a decrease in TIGR 4 viability of ˜6 log, at as low as 0.5 μg/ml (FIG. 9b). Stability of ClyX-1 at different temperature and pH was surveyed to determine optimal conditions. […]

S. pneumoniae strains = assay: Antimicrobial spectrum of ClyX-1 by turbidity reduction assay, pneumococci; format: cell-based, Streptococcus pneumoniae; details: 14 most frequent serotypes, Lyt 4.4, R36A and R6; 5 μg/ml, 10 min
Protocol: (§3) (b) Bactericidal effects of ClyX-1 against stationary phase S. pneumoniae R6. Different concentrations of ClyX-1 were mixed with 10^6 overnight bacterial culture for 5 min. Log killing was determined through the comparisons of PBS treatment and ClyX-1 treatment. (c)-(d) Biochemical characterization of ClyX-1. The effects of temperature stability (c) and pH (d) were evaluated. […] of ClyX-1 was assayed for lytic activity via turbidity reduction assay against stationary phase S. pneumoniae TIGR 4 cells for 10 min. Values were presented as percentage of lytic activity in a relation to activity observed for pH 7 and 37° C. (e) The host range of ClyX-1. Multiple strains of streptococci were tested for susceptibility. The bacterial cells were washed twice and resuspended in PBS to a final OD600 of 0.9-1.0. The changes of OD600 were presented after treating with […] of ClyX-1 for 10 min;
(§4) In a bacteriolytic assay, bacterial culture (stationary phase) was harvested at 5,000 for 10 min at 4° C., washed twice and resuspended in PBS buffer, pH7.4. In a 96-well titration plate, the resuspended bacterial solution was mixed 1:1 (u/u) with endolysin to a final OD600 between 0.8 to 1.0. […] Spectrophotometric readings (OD600) were taken every 15 s over 10 min on a spectrophotometer. Vmax was calculated as the slope of the linear portion and represented the endolysins activity. […]

[3] = test system: S. pneumoniae ATCC TIGR 4; assay: Bacteriolytic (turbidity reduction) assay; format: cell-based, Streptococcus pneumoniae; details: 5 μg/ml; OD from 1.0 to 0.2 within the first 2 min; overnight culture
Protocol: (§5) In a bacteriolytic assay, bacterial culture (stationary phase) was harvested at 5,000 for 10 min at 4° C., washed twice and resuspended in PBS buffer, pH7.4. In a 96-well titration plate, the resuspended bacterial solution was mixed 1:1 (u/u) with endolysin to a final OD600 between 0.8 to 1.0. In each run, PBS was included as a negative control. Spectrophotometric readings (OD600) were taken every 15 s over 10 min on a spectrophotometer. Vmax was calculated as the slope of the linear portion and represented the endolysins activity. All experiments were conducted in triplicate to get the standard deviation.
as §2, with “9b).” for “9b). Stability of ClyX-1 at different temperature and pH was surveyed to determine optimal conditions.”

other streptococci = assay: Antimicrobial spectrum of ClyX-1 by turbidity reduction assay, other streptococci; format: cell-based; details: 5 μg/ml, 10 min
Protocol: as §3, §4

[4] = test system: stationary phase S. pneumoniae TIGR 4; assay: Temperature stability and pH optimum of ClyX-1 by turbidity reduction assay; format: cell-based, Streptococcus pneumoniae
Protocol: as §5
The optimal biochemical conditions for ClyX-1 against stationary phase S. pneumoniae TIGR 4 were determined using the turbidity reduction assay described above. For temperature stability, ClyX-1 was incubated at indicated temperatures (4° C., 16° C., 25° C., 37° C., 45° C., 55° C., or 65° C.)/tsb for 30 min, recovered on ice for 5 min, and subjected to the spectrophotometric analysis. For optimal pH condition, pneumococci TIGR 4 were suspended in 40 mM boric acid/phosphoric acid (BP) buffer, pH 3-10, and were challenged against ClyX-1.

S. pneumoniae D39 = assay: Bactericidal assay on D39, ClyX-1 compared with Cpl-1 and PlyCA; format: cell-based, Streptococcus pneumoniae
Protocol: (§6) (a) Different concentrations of ClyX-1 and Cpl-1 were mixed with 10^6 overnight S. pneumoniae D39 culture for 5 min. The cells were then serial diluted and plated on the THY plates. Log killing was determined through the comparisons of PBS treatment and the enzymes treatment. (b) Female BALB/c mice were injected intraperitoneally with pneumococcus strain S. pneumoniae NS26 at a single dose at 2.95×10^7 colony forming units (CFU) per mouse. One hour after the infection, mice were intraperitoneally received a single dose of different treatments in different amount per mouse. The lines represent the percentage survival of mice for 10 days. The data was plotted as Kaplan-Meier survival curves and analyzed via the Log-rank (Mantel-Cox) test (*P<0.001; **P<0.0001);
as §1
Bactericidal assays were repeated using the three lysins at different concentrations (0.5 μg/ml to 50 μg/ml) on a different strain, D39 (FIG. 10a).

S. pneumoniae NS26 = assay: Mouse systemic infection model, survival; format: in vivo, female BALB/c mice; details: 10 days
Protocol: as §6
With regard to in vivo mouse infection models, mouse infection experiments were carried out in an ABSL-2 lab. In the mouse systemic infection model, female BALB/c mice (6-8 weeks old) were injected intraperitoneally with S. pneumoniae NS26 at a single dose of 2.95×10^7 CFU/mouse and divided randomly into multiple groups. Bacterial burden in blood and organs in mice 1 h post-infected were confirmed by plating on THY agar as described previously. One hour post-infection, these groups intraperitoneally received a single dose of 20, 40, or 80 μg/mouse of […] (n=10); 20, 40, or 80 μg/mouse of Cpl-1 (n=10); 100 μg/mouse of penicillin G (n=10); or an equal volume of PBS buffer (n=10). The survival data for all groups were recorded for 10 days.
To validate the in vitro bactericidal activity of ClyX-1, we applied a mouse systemic infection model to test the in vivo efficacy of the enzyme. Mice were challenged to a 2-days lethal-dose of 2.95×10^7 CFU. One hour after infection, the mice were intraperitoneally injected a single dose containing different amount of either ClyX-1 or Cpl-1 ranging from 20 μg-80 μg. The antibiotics control was 100 μg/mouse of penicillin G, and the negative control was as PBS, pH7.4 buffer. The mice were then observed and recorded for the survival data. All the mice treated with PBS buffer died within the first 2 days.

[5] = incubated 30 min at indicated temperature before assay

Row | Molecule | activity by MIC compared with parental endolysin and ClyX-2 [1] | bactericidal activity compared with PlySs2 [2] | decrease in viability (TIGR 4) | susceptibility of all tested pneumococcal strains (S. pneumoniae strains) | decrease in OD in turbidity assay [3] | lysis of other streptococci (other streptococci) | optimal pH condition ([4]; BP buffer pH 3-10) | pH above which activity is lost (protein precipitation) ([4]; BP buffer pH 3-10) | pH below which activity is lost (protein precipitation) ([4]; BP buffer pH 3-10) | temperature above which the activity rapidly dropped [4, 5] | temperature below which the enzyme was stable with highest activity [4, 5] | fold increase in activity in vitro against S. pneumoniae compared to the parental enzyme (S. pneumoniae D39; versus parental Cpl-1) | concentration at which the bacteria culture was sterilized (S. pneumoniae D39; within 5 min, tested 0.5 to 50 μg/ml) | mice rescued (survival) (S. pneumoniae NS26; 20 μg single i.p. dose 1 h after infection) | mice rescued (survival) (S. pneumoniae NS26; 40 μg single i.p. dose 1 h after infection) | mice rescued (survival) (S. pneumoniae NS26; 80 μg single i.p. dose 1 h after infection)
1 | ClyX-4: the full-length PlySs2 with an additional C′ terminal Cpl-1 EAD (GH25); Seq. ID No. 22 (protein, Bacteriophage, the full-length PlySs2 with an additional C′ terminal Cpl-1 EAD (GH25); ID No. 22) MTTVNEALNNVRAQVGSGVSVGNGECYALASWYERMISPDATVGLGAGVGWVSGAIGDTISAKNIGSSYNWQANGWTVSTSGPFKAGQIVTLGATPGNPYGHVVIVEAVDGDRLTILEQNYGGKRYPVRNYYSAASYRQQVVHYITPPGTVAQSAPNLAGSRSYRETGTMTVTVDALNVRRAPNTSGEIVAVYKRGESFDYDTVIIDVNGYVWVSYIGGSGKRNYVATGATKDGKRFGNAWGTFKMVKKNDLFVDVSSHNGYDITGILEQMGTTNTIIKISESTTYLNPCLSAQVEQSNPIGFYHFARFGGDVAEAEREAQFFLDNVPMQVKYLVLDYEDDPSGDAQANTNACLRFMQMIADAGYKPIYYSYKPFTHDNVDYQQILAQFPNSLWIAGYGLNDGTANFEYFPSMDGIRWWQYSSNPFDKNIVLLDDEEDDKPKTAGTWKQDSKGWWFRRNNGSFPY | better than parental endolysins | more active than PlySs2 | – | – | – | – | – | – | – | – | – | – | – | – | – | –
2 | ClyX-1: chimeric endolysin, Seq. ID No. 17: Cpl-1 CBD fused between GyH and CHAP catalytic domains of PlyCA (protein, Bacteriophage, ID No. 17: Cpl-1 CBD fused between GyH and CHAP catalytic domains of PlyCA) MSKKYTQQQYEKYLAQPANNTFGLSPQQVADWFMGQAGARPVINSYGVNASNLVSTYIPKMQEYGVSYTLFLMYTVFEGGGAGNWINHYMYDTGSNGLECLEHDLQYIHGVWETYFPPALSAPECYPATEDNAGALDRFYQSLPGRTWGDVMIPSTMAGNAWVWAYNYCVNNQGAAPLVYFGNPYDSQIDSLLAMGADPFTGGSIMEEDDKPKTAGTWKQDSKGWWFRRNNGSFPYNKWEKIGGVWYYFDSKGYCLTSEWLKDNEKWYYLKDNGAMATGWVLVGSEWYYMDDSGAMVTGWVKYKNNWYYMTNERGNMVSNEFIKSGKGWYFMNTNGELADNPSFTKEPDGLITVAGSDRVAANLANAQAQVGKYIGDGQCYAWVGWWSARVCGYSISYSTGDPMLPLIGDGMNAHSIHLGWDWSIANTGIVNYPVGTVGRKEDLRVGAIWCATAFSGAPFYTGQYGHTGIIESWSDTTVTVLEQNILGSPVIRSTYDLNTFLSTLTGLITFK | – | – | ~6 log | susceptible | 80% | lysis of no other streptococci tested | 6.5 | above 8 | below 4 | above 45 °C | below 37 °C | ~100 fold | ≤ 0.5 µg/mL | 30% | 40% | 80%
